Data published in article PMC10681739, “High-throughput data and modeling reveal insights into the mechanisms of cooperative DNA-binding by transcription factor proteins”.

T1: ETS1 (Homo sapiens, UniProt P14921)
T1 sequence: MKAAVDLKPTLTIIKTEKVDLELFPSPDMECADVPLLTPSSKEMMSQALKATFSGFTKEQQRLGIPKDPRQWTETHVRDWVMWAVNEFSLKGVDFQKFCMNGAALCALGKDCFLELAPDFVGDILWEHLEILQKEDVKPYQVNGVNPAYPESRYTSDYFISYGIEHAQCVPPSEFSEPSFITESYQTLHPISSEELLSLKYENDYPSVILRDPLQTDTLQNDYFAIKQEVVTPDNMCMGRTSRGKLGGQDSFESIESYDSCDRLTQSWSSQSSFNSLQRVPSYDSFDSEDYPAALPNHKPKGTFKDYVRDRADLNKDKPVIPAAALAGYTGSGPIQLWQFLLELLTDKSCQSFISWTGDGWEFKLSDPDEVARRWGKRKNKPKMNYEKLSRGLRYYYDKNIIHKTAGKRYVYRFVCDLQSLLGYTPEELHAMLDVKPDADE


Molecular target: T1, ETS1
Assay: gcPBM; 1 nM ETS1
Details: tags: N-terminal GST (pDEST15), kept (PMC6008103); label: surface-attached array probe

Binder	binding signal
Table S2 B row 126 (dsDNA) DNA 1: TGGCGCTTCCTGTCGCTACCCCAGCGGCCCAGGGCC DNA 2: GGCCCTGGGCCGCTGGGGTAGCGACAGGAAGCGCCA	18100 PBM fluorescence, median of replicate spots
Table S2 C row 35 (dsDNA) DNA 1: GTAGCTGTAACTGCCACCGCGATGCCGAAGGCGCCC DNA 2: GGGCGCCTTCGGCATCGCGGTGGCAGTTACAGCTAC	324 PBM fluorescence, median of replicate spots
Table S2 C row 126 (dsDNA) DNA 1: TCCACGCCCCGGCGCTGCGGGCACCGAGTAAAACGC DNA 2: GCGTTTTACTCGGTGCCCGCAGCGCCGGGGCGTGGA	327 PBM fluorescence, median of replicate spots
Table S2 C row 160 (dsDNA) DNA 1: GCCAGCCTGGGCCGGGCCACAAGAACAAGGAATGTT DNA 2: AACATTCCTTGTTCTTGTGGCCCGGCCCAGGCTGGC	322 PBM fluorescence, median of replicate spots
Table S2 C row 25 (dsDNA) DNA 1: CCAGCCCGGCCTCGGACCGCGGCACCCCTCCTGGCC DNA 2: GGCCAGGAGGGGTGCCGCGGTCCGAGGCCGGGCTGG	312 PBM fluorescence, median of replicate spots
Table S2 C row 8 (dsDNA) DNA 1: CCACCCGGGGCCTGGACCGCACCACGGTCACTGGCG DNA 2: CGCCAGTGACCGTGGTGCGGTCCAGGCCCCGGGTGG	316 PBM fluorescence, median of replicate spots
Table S2 C row 106 (dsDNA) DNA 1: ATTCACTCATCCCTCACCACAGCCAGCTGCTTGAGA DNA 2: TCTCAAGCAGCTGGCTGTGGTGAGGGATGAGTGAAT	320 PBM fluorescence, median of replicate spots
Table S2 C row 139 (dsDNA) DNA 1: GGAGCTGCTCCAGGCTGCGGTGGGATCAAAGCTACC DNA 2: GGTAGCTTTGATCCCACCGCAGCCTGGAGCAGCTCC	316 PBM fluorescence, median of replicate spots
Table S2 C row 62 (dsDNA) DNA 1: GAGCATCTTGAGGTCTGTGGTTCAGCTACCAGCCCC DNA 2: GGGGCTGGTAGCTGAACCACAGACCTCAAGATGCTC	296 PBM fluorescence, median of replicate spots
Table S2 C row 61 (dsDNA) DNA 1: TGCTCTCGGCCTGGCTGTGGGCGGGTGGCCATCAGT DNA 2: ACTGATGGCCACCCGCCCACAGCCAGGCCGAGAGCA	327 PBM fluorescence, median of replicate spots
Table S2 C row 19 (dsDNA) DNA 1: GACAAATCAAATGCCACCGCAGAGTTTACTCGAGTT DNA 2: AACTCGAGTAAACTCTGCGGTGGCATTTGATTTGTC	343 PBM fluorescence, median of replicate spots
Table S2 C row 30 (dsDNA) DNA 1: TGAAATTTTTCTTTTTGTGGTCAGTAATCCCAAAAA DNA 2: TTTTTGGGATTACTGACCACAAAAAGAAAAATTTCA	339 PBM fluorescence, median of replicate spots
Table S2 C row 111 (dsDNA) DNA 1: CCAGCTGTACTGAGTTGAGGTTTTTCTGACCCTCAG DNA 2: CTGAGGGTCAGAAAAACCTCAACTCAGTACAGCTGG	336 PBM fluorescence, median of replicate spots
Table S2 C row 95 (dsDNA) DNA 1: TGTCTCATCAGCCAGGCCACAAACGCGATGTTTACA DNA 2: TGTAAACATCGCGTTTGTGGCCTGGCTGATGAGACA	338 PBM fluorescence, median of replicate spots
Table S2 C row 165 (dsDNA) DNA 1: ATCAGCGTGGCTGCTGCCGCAGAACAAGCCACGCTT DNA 2: AAGCGTGGCTTGTTCTGCGGCAGCAGCCACGCTGAT	345 PBM fluorescence, median of replicate spots
Table S2 C row 97 (dsDNA) DNA 1: CGAGGGCGCGCGTCTCGCGGTCCATCCAGCTCAGCA DNA 2: TGCTGAGCTGGATGGACCGCGAGACGCGCGCCCTCG	331 PBM fluorescence, median of replicate spots

Binder	binding signal
Table S2 C row 66 (dsDNA) DNA 1: TCCTGAGTGCTGGGAACCGCAGCGCCACATGCACCC DNA 2: GGGTGCATGTGGCGCTGCGGTTCCCAGCACTCAGGA	341 PBM fluorescence, median of replicate spots
Table S2 C row 135 (dsDNA) DNA 1: GGGTCCCGGGGACCCTGCGGGCTCCGAGTAGTCGTA DNA 2: TACGACTACTCGGAGCCCGCAGGGTCCCCGGGACCC	332 PBM fluorescence, median of replicate spots
Table S2 C row 73 (dsDNA) DNA 1: GTGGCACCCTCAAGGGCCACAACGGCTGGGTAACCC DNA 2: GGGTTACCCAGCCGTTGTGGCCCTTGAGGGTGCCAC	312 PBM fluorescence, median of replicate spots
Table S2 C row 53 (dsDNA) DNA 1: CCTGGGCTGCAGGCACCCACAGTCCAGAGGCTCAAA DNA 2: TTTGAGCCTCTGGACTGTGGGTGCCTGCAGCCCAGG	318 PBM fluorescence, median of replicate spots
Table S2 C row 169 (dsDNA) DNA 1: TGGGCATGCGCGGCGCGCGGTTGGCACTGGCTGCGA DNA 2: TCGCAGCCAGTGCCAACCGCGCGCCGCGCATGCCCA	336 PBM fluorescence, median of replicate spots
Table S2 C row 94 (dsDNA) DNA 1: CCCAAGCCCGCGGGCTGCGGGCGCTGATTGGGCGGC DNA 2: GCCGCCCAATCAGCGCCCGCAGCCCGCGGGCTTGGG	346 PBM fluorescence, median of replicate spots
Table S2 C row 29 (dsDNA) DNA 1: TGGCCATGGCCTATGACCGCTATGTGGCCATCTGCT DNA 2: AGCAGATGGCCACATAGCGGTCATAGGCCATGGCCA	340 PBM fluorescence, median of replicate spots
Table S2 C row 143 (dsDNA) DNA 1: CGGCCCCGCTGAGGGGCCGCAAGGACGAGGACGCCT DNA 2: AGGCGTCCTCGTCCTTGCGGCCCCTCAGCGGGGCCG	300 PBM fluorescence, median of replicate spots
Table S2 C row 140 (dsDNA) DNA 1: CCACGGCCCGGTGCCTGTGGTCCCCTCCCCGAGGGT DNA 2: ACCCTCGGGGAGGGGACCACAGGCACCGGGCCGTGG	328 PBM fluorescence, median of replicate spots
Table S2 C row 195 (dsDNA) DNA 1: GCTGCTGACTGCCCCTGAGGTTAGAGATTGACTAGA DNA 2: TCTAGTCAATCTCTAACCTCAGGGGCAGTCAGCAGC	325 PBM fluorescence, median of replicate spots
Table S2 C row 194 (dsDNA) DNA 1: TCGGGAACGTGGGGCTGCGGCCGCCCATGGTGCCCC DNA 2: GGGGCACCATGGGCGGCCGCAGCCCCACGTTCCCGA	335 PBM fluorescence, median of replicate spots
Table S2 B row 703 (dsDNA) DNA 1: GCCGGGCACTTCCTGTGGAGGCCGAAGCGGGTGCGC DNA 2: GCGCACCCGCTTCGGCCTCCACAGGAAGTGCCCGGC	17200 PBM fluorescence, median of replicate spots
Table S2 C row 122 (dsDNA) DNA 1: AGAGACAGTAGCAGCCGCGGTGACTGGCGGCCTCCT DNA 2: AGGAGGCCGCCAGTCACCGCGGCTGCTACTGTCTCT	296 PBM fluorescence, median of replicate spots
Table S2 C row 45 (dsDNA) DNA 1: GCGGGGTTGGGAGGCTGCGGGAGTTTGCGTCCCCTC DNA 2: GAGGGGACGCAAACTCCCGCAGCCTCCCAACCCCGC	339 PBM fluorescence, median of replicate spots
Table S2 C row 185 (dsDNA) DNA 1: GCAGAAATATGCTGAACCACAACTGAAGGTGGCTGA DNA 2: TCAGCCACCTTCAGTTGTGGTTCAGCATATTTCTGC	345 PBM fluorescence, median of replicate spots
Table S2 B row 614 (dsDNA) DNA 1: GAGGACTTCCGGGTGGGTGTGATATCTACGGGCCCG DNA 2: CGGGCCCGTAGATATCACACCCACCCGGAAGTCCTC	17700 PBM fluorescence, median of replicate spots
